This note sets out measurements from the supplement of paper PMC10065799, “High-throughput profiling of sequence recognition by tyrosine kinases and SH2 domains using bacterial peptide display” (eLife, 2023).

One data set has as its target c-Src SH2. As to the kind of experiment: SH2 binding enrichment of the phosphorylated peptide, bacterial display (enrichment ratio); higher = better substrate or ligand; peptides without Tyr show the background.
A further data set addresses SHP2-C SH2. The description is as above.
Another data set has as its target Grb2 SH2 (UniProt P62993). The description is as above.
The target of another data set is EPHB1 (UniProt P54762). Kind of data set: phosphorylation enrichment, bacterial display (enrichment ratio); higher = better substrate or ligand; peptides without Tyr show the background.
Another data set addresses FGFR1 (UniProt P11362). Described as above.
The target of the next data set is FGFR3 (UniProt P22607). The data set is described as above.
The test system of another data set is c-Src. The description is as above.
In a further data set the test system is c-Abl (mouse). The data set is described as above.
The target of a further data set is EPHB2 (UniProt P29323). The description is as above.
The target in another data set is Fyn (UniProt P06241). Described as above.
Another data set concerns Fer (mouse). The description is as above.
For the next data set, the target named is Jak2 (UniProt O60674). Described as above.
Another data set concerns the target MERTK (UniProt Q12866). The description is as above.
In another data set the test system is AncSZ. The data set is described as above.
In another data set the target is Hck (UniProt P08631). Described as above.
The next data set has as its target Fes (UniProt P07332). Described as above.
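Wherever SH2 binding enrichment of the phosphorylated peptide, bacterial display is given: peptide library displayed on the E. coli surface as eCPX fusions, selected cells deep-sequenced, score is each peptide's frequency after selection divided by its frequency in the input.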
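Wherever phosphorylation enrichment, bacterial display is given: 11-residue human phosphosite peptides and single-mutation variants displayed on the E. coli surface, counted by deep sequencing, each peptide's frequency after selection divided by its frequency in the unselected input library; frequency after pTyr selection over input frequency; kinase dosed for 20-30% of maximal phosphorylation in three min.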

Sequence of Grb2 SH2 (P62993 whole entry, looked up): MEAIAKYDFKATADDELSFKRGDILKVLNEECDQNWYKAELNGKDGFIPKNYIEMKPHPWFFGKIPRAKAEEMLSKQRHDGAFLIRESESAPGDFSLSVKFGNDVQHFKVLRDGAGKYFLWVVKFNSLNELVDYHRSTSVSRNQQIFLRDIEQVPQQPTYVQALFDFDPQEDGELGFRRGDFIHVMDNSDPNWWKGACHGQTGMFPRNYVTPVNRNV
Sequence of FGFR1 (P11362 whole entry, looked up): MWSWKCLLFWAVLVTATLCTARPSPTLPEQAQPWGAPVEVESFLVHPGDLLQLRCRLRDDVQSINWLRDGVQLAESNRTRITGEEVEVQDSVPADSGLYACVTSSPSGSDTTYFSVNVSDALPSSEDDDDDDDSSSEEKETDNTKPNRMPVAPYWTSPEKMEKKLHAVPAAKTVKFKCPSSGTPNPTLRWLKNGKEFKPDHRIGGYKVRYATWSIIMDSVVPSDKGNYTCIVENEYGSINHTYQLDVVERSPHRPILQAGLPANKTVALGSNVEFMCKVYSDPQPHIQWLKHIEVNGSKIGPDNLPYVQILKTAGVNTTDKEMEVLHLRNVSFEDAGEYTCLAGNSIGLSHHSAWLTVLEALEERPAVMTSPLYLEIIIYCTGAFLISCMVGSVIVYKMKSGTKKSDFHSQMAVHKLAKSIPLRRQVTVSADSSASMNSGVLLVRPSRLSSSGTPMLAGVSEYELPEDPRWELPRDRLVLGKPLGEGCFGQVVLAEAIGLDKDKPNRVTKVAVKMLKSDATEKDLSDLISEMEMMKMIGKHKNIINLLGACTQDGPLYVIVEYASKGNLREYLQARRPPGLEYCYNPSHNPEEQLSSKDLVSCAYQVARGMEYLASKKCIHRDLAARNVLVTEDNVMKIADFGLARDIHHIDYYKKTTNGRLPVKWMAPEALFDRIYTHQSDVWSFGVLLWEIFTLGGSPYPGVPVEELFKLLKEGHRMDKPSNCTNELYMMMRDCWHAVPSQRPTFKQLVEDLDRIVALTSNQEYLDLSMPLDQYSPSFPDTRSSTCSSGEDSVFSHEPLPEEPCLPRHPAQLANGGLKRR
Sequence of Fes (P07332 whole entry, looked up, the tested form may be a part): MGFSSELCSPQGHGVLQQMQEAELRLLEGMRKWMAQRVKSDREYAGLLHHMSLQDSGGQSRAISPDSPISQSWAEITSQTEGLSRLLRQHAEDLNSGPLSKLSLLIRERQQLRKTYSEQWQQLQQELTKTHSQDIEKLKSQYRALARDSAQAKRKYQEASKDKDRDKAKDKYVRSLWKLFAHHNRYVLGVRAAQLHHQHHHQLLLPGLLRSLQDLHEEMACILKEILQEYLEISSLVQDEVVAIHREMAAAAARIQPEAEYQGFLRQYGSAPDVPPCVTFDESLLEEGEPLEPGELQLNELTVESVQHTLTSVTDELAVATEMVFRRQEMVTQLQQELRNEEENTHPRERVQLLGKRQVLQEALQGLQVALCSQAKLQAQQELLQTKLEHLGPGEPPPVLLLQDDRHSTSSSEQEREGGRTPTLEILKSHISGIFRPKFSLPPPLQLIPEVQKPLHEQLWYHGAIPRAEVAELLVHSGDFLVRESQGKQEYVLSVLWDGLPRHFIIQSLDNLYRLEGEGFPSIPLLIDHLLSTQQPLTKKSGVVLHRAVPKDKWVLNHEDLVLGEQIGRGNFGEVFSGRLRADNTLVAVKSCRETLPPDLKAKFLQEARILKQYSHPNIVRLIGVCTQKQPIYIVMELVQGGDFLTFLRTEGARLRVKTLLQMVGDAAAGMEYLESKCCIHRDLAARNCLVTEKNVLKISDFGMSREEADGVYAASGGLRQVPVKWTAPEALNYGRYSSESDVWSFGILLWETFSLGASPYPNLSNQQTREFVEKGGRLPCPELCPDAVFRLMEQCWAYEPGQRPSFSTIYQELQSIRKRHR
Sequence of EPHB1 (P54762 whole entry, looked up): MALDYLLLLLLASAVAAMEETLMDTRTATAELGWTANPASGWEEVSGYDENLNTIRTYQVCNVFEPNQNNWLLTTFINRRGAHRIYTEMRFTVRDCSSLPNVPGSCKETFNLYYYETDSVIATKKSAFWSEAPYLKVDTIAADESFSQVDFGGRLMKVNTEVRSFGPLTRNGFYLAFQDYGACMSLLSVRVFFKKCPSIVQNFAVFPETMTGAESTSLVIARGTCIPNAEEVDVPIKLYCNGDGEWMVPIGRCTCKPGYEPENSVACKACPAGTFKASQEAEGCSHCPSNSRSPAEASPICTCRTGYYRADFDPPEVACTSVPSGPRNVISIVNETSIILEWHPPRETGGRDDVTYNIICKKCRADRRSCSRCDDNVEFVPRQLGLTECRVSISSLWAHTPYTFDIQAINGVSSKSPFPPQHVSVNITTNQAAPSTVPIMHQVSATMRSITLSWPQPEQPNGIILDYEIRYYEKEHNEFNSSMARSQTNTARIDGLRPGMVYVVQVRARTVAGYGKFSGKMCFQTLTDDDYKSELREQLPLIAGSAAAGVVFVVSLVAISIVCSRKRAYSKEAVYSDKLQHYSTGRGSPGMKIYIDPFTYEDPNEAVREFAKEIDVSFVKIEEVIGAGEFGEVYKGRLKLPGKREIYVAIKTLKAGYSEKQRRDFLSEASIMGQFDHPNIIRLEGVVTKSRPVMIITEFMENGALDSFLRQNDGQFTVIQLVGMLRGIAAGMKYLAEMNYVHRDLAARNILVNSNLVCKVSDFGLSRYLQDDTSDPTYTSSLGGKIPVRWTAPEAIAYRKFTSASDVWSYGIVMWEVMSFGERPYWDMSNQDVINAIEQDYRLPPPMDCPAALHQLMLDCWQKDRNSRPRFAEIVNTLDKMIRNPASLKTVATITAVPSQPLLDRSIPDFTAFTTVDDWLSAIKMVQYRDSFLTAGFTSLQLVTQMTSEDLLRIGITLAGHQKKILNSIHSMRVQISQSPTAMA
Sequence of Hck (P08631 whole entry, looked up): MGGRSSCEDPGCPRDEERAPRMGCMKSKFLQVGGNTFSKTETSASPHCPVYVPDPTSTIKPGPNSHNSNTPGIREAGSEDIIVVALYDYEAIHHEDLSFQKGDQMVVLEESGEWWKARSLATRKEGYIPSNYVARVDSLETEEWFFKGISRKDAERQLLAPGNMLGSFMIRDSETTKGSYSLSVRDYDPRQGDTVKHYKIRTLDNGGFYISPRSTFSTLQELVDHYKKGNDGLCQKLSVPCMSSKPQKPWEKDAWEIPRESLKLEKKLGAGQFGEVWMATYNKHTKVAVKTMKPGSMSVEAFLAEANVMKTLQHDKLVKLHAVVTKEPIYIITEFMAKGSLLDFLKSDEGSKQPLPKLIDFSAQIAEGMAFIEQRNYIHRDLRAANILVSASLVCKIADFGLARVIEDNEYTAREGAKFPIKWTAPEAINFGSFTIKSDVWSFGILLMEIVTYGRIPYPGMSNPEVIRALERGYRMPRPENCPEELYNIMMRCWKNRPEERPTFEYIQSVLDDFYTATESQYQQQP
Sequence of Fyn (P06241 whole entry, looked up): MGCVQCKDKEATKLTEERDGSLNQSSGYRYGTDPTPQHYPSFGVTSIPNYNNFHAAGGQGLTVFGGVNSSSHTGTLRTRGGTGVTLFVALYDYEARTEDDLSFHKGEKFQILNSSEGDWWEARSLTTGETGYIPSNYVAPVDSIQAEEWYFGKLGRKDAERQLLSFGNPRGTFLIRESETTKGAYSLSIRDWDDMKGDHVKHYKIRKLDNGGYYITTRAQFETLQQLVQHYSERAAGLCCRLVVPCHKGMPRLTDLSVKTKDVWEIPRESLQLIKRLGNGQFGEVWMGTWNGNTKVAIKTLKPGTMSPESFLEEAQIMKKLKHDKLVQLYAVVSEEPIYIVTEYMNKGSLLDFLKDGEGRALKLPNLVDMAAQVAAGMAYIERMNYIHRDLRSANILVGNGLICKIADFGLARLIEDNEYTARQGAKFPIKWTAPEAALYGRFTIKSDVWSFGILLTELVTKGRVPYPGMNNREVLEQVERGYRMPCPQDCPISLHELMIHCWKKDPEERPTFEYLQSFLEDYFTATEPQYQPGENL
Sequence of Jak2 (O60674 whole entry, looked up): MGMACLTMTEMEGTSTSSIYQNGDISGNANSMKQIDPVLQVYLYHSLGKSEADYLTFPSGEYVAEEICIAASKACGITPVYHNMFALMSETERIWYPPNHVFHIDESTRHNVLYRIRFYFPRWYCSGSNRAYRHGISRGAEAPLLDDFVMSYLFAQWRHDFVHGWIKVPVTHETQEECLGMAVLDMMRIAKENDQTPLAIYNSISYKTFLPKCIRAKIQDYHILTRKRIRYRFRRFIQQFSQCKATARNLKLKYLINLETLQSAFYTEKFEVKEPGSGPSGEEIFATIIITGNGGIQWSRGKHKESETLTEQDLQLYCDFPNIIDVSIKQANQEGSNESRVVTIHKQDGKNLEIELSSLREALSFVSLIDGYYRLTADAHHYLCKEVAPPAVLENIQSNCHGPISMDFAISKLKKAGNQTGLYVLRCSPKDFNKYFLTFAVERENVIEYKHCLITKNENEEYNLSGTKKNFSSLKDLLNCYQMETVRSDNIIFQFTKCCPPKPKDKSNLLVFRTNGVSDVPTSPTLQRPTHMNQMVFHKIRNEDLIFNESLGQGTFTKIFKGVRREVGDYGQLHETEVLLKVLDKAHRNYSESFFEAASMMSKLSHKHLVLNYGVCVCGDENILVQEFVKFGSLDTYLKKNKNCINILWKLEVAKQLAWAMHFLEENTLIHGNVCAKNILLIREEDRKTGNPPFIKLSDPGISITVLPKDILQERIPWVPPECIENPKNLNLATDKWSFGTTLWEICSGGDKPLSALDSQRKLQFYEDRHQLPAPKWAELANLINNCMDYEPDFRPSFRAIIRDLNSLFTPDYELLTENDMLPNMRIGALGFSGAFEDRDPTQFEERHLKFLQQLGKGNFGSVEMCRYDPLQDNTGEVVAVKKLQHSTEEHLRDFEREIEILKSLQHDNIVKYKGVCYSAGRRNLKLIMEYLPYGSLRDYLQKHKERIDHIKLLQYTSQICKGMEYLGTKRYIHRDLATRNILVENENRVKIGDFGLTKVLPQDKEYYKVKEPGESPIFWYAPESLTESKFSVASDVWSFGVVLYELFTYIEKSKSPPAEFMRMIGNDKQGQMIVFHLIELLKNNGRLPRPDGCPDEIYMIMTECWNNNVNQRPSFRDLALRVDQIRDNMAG

As for SNKLFYQLEQE [PDPR_Y110_YF], the figures for the SH2 binding enrichment with c-Src SH2, in the data set with SHP2-C SH2 and with Grb2 SH2 were 0.651, 0.649 and 0.869, respectively. Besides, the phosphorylation enrichment with EPHB1 was found to be 0.628; in the data set with FGFR1, 0.588; in the data set with FGFR3, 0.692; with c-Src, 1.91; in the data set with c-Abl (mouse), 0.791; with EPHB2, 0.738. Moreover, the phosphorylation enrichment with Fyn came to 1.45; with Fer (mouse), 0.583; with Jak2, 1.3; in the data set with MERTK, 0.508; with AncSZ, 1.25; with Hck it was 0.641. Moreover, the phosphorylation enrichment with Fes came to 1.39.

For the sequence SNMPSYSGHFT [GRIN2A_Y1224_T1223S], the figures for the SH2 binding enrichment with c-Src SH2, with SHP2-C SH2 and in the data set with Grb2 SH2 were 0.548, 0.631 and 0.79, respectively. Moreover, the phosphorylation enrichment with EPHB1 is 0.417; with FGFR1, 0.328; with FGFR3, 0.421; in the data set on c-Src it was 0.463; in the data set with c-Abl (mouse), 0.444; with EPHB2, 0.408. In addition, the phosphorylation enrichment in the data set with Fyn came out at 0.465; in the data set on Fer (mouse), 1.6; with Jak2, 0.614; with MERTK, 0.411; in the data set on AncSZ, 0.476; with Hck it was 0.425. Also, the phosphorylation enrichment in the data set with Fes was 0.599.

As for SRDDFYETIAM [NPY1R_Y347_D346Y_YF], the SH2 binding enrichment with c-Src SH2 is 0.916; with SHP2-C SH2 it was 0.73; with Grb2 SH2 it was 0.947. Moreover, the phosphorylation enrichment with EPHB1 came out at 1.02; with FGFR1 it was 0.5; in the data set with FGFR3, 0.871; in the data set with c-Src, 1.06; in the data set with c-Abl (mouse) it was 0.773; with EPHB2 it was 0.68. Moreover, the phosphorylation enrichment came to 1.44 with Fyn; 7.71 in the data set with Fer (mouse); 1.23 with Jak2; 0.826 with MERTK; 1.3 in the data set with AncSZ; 2.04 in the data set with Hck. Moreover, in the data set with Fes, the phosphorylation enrichment is 1.21.

As for SRDPFYEMLAA [CYTH1_Y382], the SH2 binding enrichment with c-Src SH2 is 2.44; in the data set with SHP2-C SH2, 0.748; with Grb2 SH2, 0.957. Further, the phosphorylation enrichment with EPHB1 was 3.5; in the data set with FGFR1, 5.1; with FGFR3 it was 3.2; with c-Src, 2.96; in the data set on c-Abl (mouse), 0.681; with EPHB2, 1.71. Moreover, the phosphorylation enrichment with Fyn was determined as 2.55; in the data set with Fer (mouse), 12.4; with Jak2, 0.729; with MERTK, 7.89; with AncSZ it was 1.21; in the data set with Hck, 4.88. Further, the phosphorylation enrichment in the data set with Fes was 1.26.

Take SRNKPYISWPS [CDC42BPB_Y1638]: the SH2 binding enrichment with c-Src SH2 worked out at 1.32; in the data set with SHP2-C SH2, 1.51; with Grb2 SH2, 1.61. Further, the phosphorylation enrichment in the data set with EPHB1 was determined as 0.417; in the data set with FGFR1 it was 0.469; with FGFR3, 0.511; in the data set with c-Src, 0.483; in the data set with c-Abl (mouse) it was 0.477; in the data set with EPHB2, 0.395. Also, the phosphorylation enrichment in the data set with Fyn was determined as 0.436; with Fer (mouse) it was 0.345; in the data set with Jak2 it was 0.977; in the data set with MERTK it was 0.441; in the data set on AncSZ it was 0.583; with Hck it was 0.485. Further, the phosphorylation enrichment with Fes is 0.612.

For SSDPDYRAAVD [GLB1_Y154_L155R], the SH2 binding enrichment with c-Src SH2 was determined as 0.627; with SHP2-C SH2, 0.668; with Grb2 SH2, 0.78. Also, the phosphorylation enrichment with EPHB1 was 0.508; in the data set with FGFR1, 0.556; with FGFR3, 0.635; in the data set with c-Src, 0.409; in the data set with c-Abl (mouse), 0.669; with EPHB2, 0.589. The phosphorylation enrichment with Fyn came out at 0.449; with Fer (mouse), 0.507; in the data set with Jak2, 0.793; with MERTK, 0.471; in the data set with AncSZ it was 0.926; with Hck, 0.527. In addition, the phosphorylation enrichment in the data set with Fes is 0.988.

SSQHRYSTPHA [RAF1_Y232]: the SH2 binding enrichment was 2.11 with c-Src SH2, 0.898 with SHP2-C SH2 and 0.714 with Grb2 SH2. Moreover, the phosphorylation enrichment with EPHB1 came to 0.479; in the data set with FGFR1 it was 0.364; with FGFR3, 0.344; in the data set on c-Src, 0.433; in the data set on c-Abl (mouse), 0.387; with EPHB2, 0.354. The phosphorylation enrichment with Fyn was 0.357; with Fer (mouse), 0.365; in the data set with Jak2 it was 0.403; with MERTK it was 0.437; in the data set on AncSZ, 0.682; with Hck, 0.293. Besides, the phosphorylation enrichment with Fes is 0.53.

Regarding SSSGGYGGGFG [KRT19_Y61_A60G_YF], the SH2 binding enrichment with c-Src SH2 is 0.375; with SHP2-C SH2, 0.481; with Grb2 SH2, 1.09. In addition, the phosphorylation enrichment is 0.341 with EPHB1; 0.32 with FGFR1; 0.477 in the data set with FGFR3; 0.356 with c-Src; 0.512 in the data set on c-Abl (mouse); 0.346 in the data set with EPHB2. In addition, the phosphorylation enrichment worked out at 0.355 with Fyn; 0.358 in the data set with Fer (mouse); 0.499 with Jak2; 0.398 with MERTK; 0.48 with AncSZ; 0.35 with Hck. Also, in the data set with Fes, the phosphorylation enrichment turned out to be 0.593.
